Test results as given in article PMC6642009.

Molecular target: FITC-SgbA(leader) (Streptomyces globisporus sp. NRRL B-2293)
Assay: fluorescence polarisation

| Substance | Kd [nM] |
| --- | --- |
| His6-SgbL(lyase-kinase 1–548) (domain or fragment) | 251 |
| His6-MBP-SgbL(208–318) (domain or fragment) | 31000 |
| His6-SgbL(lyase-kinase 1–548) D351A (domain or fragment) | 576 |
| His6-SgbL(lyase-kinase 1–548) K248A (domain or fragment) | 7110 |
| His6-SgbL(lyase-kinase 1–548) N356A (domain or fragment) | 321 |
| His6-SgbL(lyase-kinase 1–548) D369A (domain or fragment) | 353 |
| His6-SgbL(lyase-kinase 1–548) E270A (domain or fragment) | 1720 |
